Measurements from paper PMC11063343.

Target: cellugyrin Inner loop 1A peptide
Assay: SPR

## full length SARS-CoV-2 spike protein (from UniProt P0DTC2) (natural protein)
  maximum RU: 220 RU
